Results as given in the domain aggregation screens of Martell et al. (2025).

Assay: soluble fraction after stress (log2 fold change); higher = more stays soluble; pooled small domains, quantitative proteomics
Details: stress: 50 degC
Procedure, shortened: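 The measure of aggregation propensity here is the base-two logarithm of the fold change in the soluble amount of each protein after stress. A higher value means more of that protein stays in solution. Stress was applied at 50°C to pooled libraries of small protein domains, read out by high-throughput quantitative proteomics.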

| Sequence | soluble fraction (log2) |
| --- | --- |
| HMKKVTMQDIANILNISRVTVWKVLNNQPGVSKQLRDQILLTAKETGYLKPGQEAEAYLEENNIYFEG | 0.176 |
| HMLVSPLDEIPGIGRNRKKTLLNHFGSAKTIEGASLEDLKKVDGISELIAKKIYNYFHLNKNF | -0.411 |
| HMPSEQGANKARDIIFRHHMKVDVWVGSWENARNYAEQAIKQGVKVIISRGGTAALLRHSLDTAIIKVR | 0.0222 |
| HMENPLETYYSQWVSAIKREHPEASFVKDTDGKYYVEGLTKNRLAVIYENPHLVRLVNATTNLHVE | -0.305 |
| HMQISLDTKLINLEFSVRANNVFRENQIFTLRDLTSHSKEDLMLMTNFGKTTLYEVNKKLEEHQLKLSQ | -2.69 |
| HMRMSRSARLFDLLHILRSHRRAVSGQALAQQLGISIRTLYRDIASLQAQGAKIEGEPGVGYMLKP | -0.947 |
| HMRITTKNYFKAISEVGFENLPEVLKKSHLVIEEKTNKGNDWGIYENDAEAKKVFDLAFDKLEEFIDRKED | 0.45 |
| HMNASTVTLENFEGAKYDDVYGKYDYQFSVTYEQTDKYESGVIISQKPEAGTKIIKGSQVSLVVAT | 0.0657 |
| HMSKTQYTFREVGSQFELHAPSTNHKIMVDANHPKYGWLSSQEAGRVINVYESGKMTSSQDYYGLYKQS | -0.0727 |
| HMKEDSTIIERIISNLSSASLKTQKAFEYKLTDLMFRFSEGEYEWSSAMEVIREELLPFLNK | 0.0862 |
| HMKMPNGYGSVYKLSGNRRKPWAARVTDGWVNDTKTKKSKQKYKFIGFYETRKEALLALADYNANP | -1.43 |
| HMGNIALAIARFREMIAEDPNLQPVRLHLAMALMADHQDEAARGQLEKLRSDQLPDDIRKIVDDALAALR | -1.13 |
| HMDSLARKTVNGAEFYIYPVESAEGFYSLRRKFGVSQEEVIKYNPSAQNGLKSGQVLLIPVT | -0.176 |
| HMTASSYMGMQLGRLEELLKKEVLSLSEKTELKDLISDFDKIPEVVSPKIIGRYLQLKNQHFAKINA | -0.0763 |
| HMIKRITDEQHPVDVDRLLVVTFTNAAASEMRERIGDAIEAALEKDPYNQHLQRQLTLVHNAQITTIDS | -0.0115 |
| HMPSDLQATLRAVQGMLQGVEGVDARLAGQRILLEGDSADARARERAAAIAGIFPGVVIDFVG | -0.155 |
| HMTKTKADKIDYAIGDSGTEPPTEDKWTDLAHLPLIKAGQFQWTRRTEYYSDGSTAVSYNIAKSE | 0.0286 |
| HMDGTVRGKTTFQELLDWGVPQERIEAVLGGPIPAPGVVIKDYVTAQGKEFSAVRDALQAEVDAVLK | 0.232 |
| HMDLDIGSVLQASRGEKKISLRQLAERTGLTASMLSQIERNLVNPSINTLKVIAAALEIPMYKFFMG | -0.835 |
| HMRPFAMNLLEKHKADIEVWLKHPNMTNTQIKRLLEELGTSVSVSSIDRFISTSFPKLPKHT | -0.17 |
| HMNLQGIISQKAIVTQTIEPYETGVAKLNGEEWTAMSKDETRIEAGKLVEVVAIEGVKLIVKEVS | -0.0794 |
| HMGSKQVSVPDVRNLDYERASQQLREAGFVVGDVLRIRDDRAPAGTVIAQSPAAPALVPENARVSLLVSSG | 0.251 |
| HMWWTPIILRDALFGVQRFEDFQKNLDVSRATLSSRLTRLVDEGLMEKVEYQQHPVRHEYVLTEKGR | -0.108 |

| Sequence | soluble fraction (log2) |
| --- | --- |
| HMGPTPTSAQLTEAKRLRTKLDDLNPELAERLWSEHREPYTETQYQTLIEKLAAEVQSAEGEIGR | 0.182 |
| HMSNVIYFNYNDYKFLFMGDAGVDKETDILEKYTLSNIDFLKVGHHGSDTSSNKGFIDSIQPKYSLIS | -1.07 |
| HMQIKEVDYGTFISMTEDGEIGRVEIQQQENTILFTDEDETAVYKTAMVEDDQLTQRLYDAGISFYGEE | -0.0136 |
| HMDAPRFAAGDAVRVAGLVSKPQHNGRAGSVLSYDPVSLRYIVKVDGEDEPLKLKPENVLMPA | 0.136 |
| HMLDLSEEEQKIVSILEKQGNLQINSLVVEADIPVHKINAILFELEMKGVVRVLALSLIHISEP | 0.0725 |
| HMKKDDLKQINGIGTTIEKKLNEIDIYNFYQISNLSKEDIETISEKIKTFPGKIERDNWVGQAQELL | 0.0191 |
| HMTVLVPNLTGKTLLEAEILLDQAGLKKGDVYSESNKNVPKDHIIRQKPAPNTKIQKGATIDIYRSLGPE | 0.133 |
| HMIKSEERIQNIKEYILEFQFTYHRTPTMAQIAEAVGTVKSNVYKYLSEMEERGILTRNKREIEINDTIQ | -0.819 |
| HMHINLEGLKKIDFRKKIGFLFGSEASGLSNKEVSYANYTLQIPTNINFKSLNLSHSLIIIAQFISSLLNS | -0.333 |
| HMLSTNDYNENKNKLIKDFEIKFIIKHLKLNKGNVAATARSINFHPVSLRQKIAKLGIDVDEVMAG | -1.84 |
| HMRIASANAIYDELLNKRDDAKLAELKQEDINLYALYILQNGSADERAALENTQGIDVVLKEIINLQNG | -0.309 |
| HMVDETDVPTFTDMTLEEAQNEAKQRNLKLEITESPSDKEKDTILEQDPEPGKTVASGSTVKLTVSNGEE | -0.14 |
| HMDSLSGQQGRVLEEINGFLQTGKVLLNGMEWSAVSKQPEDILPVDTEVVVVRVEGAHLVVKKA | 0.0592 |
| HMLSNYIGMTLGEAKRNLGQGVNITVNGPNNDNAEVTGQDPTSGSSFDKSKDTITLTT | 0.0581 |
| HMELNDEELIKGIQELLTKIGYDPGEINGVLGIKTSSAISAFQQSRNKAITGEADLDLLVQLQIELRKITT | -0.674 |
| HMDAVKKKVQSTNTLLDVLKQMLPQTSSNTLRKMLTNQRITVDGETIHRAKHTVEKDQTVEIHPKP | 0.256 |
| HMTPESSLHSGLGKILHDALTAKIQLTNFEAKFLSDMQSKYDLNGSFSWLSSKQQTTLEKILAKYGR | -0.841 |
| HMTSNKTVPYSELKGLISTGKIEYVGIGNTQIRAVSKSGAGIVTYTARRVIPDDTLIPELEKNGIAYGGI | -0.108 |
| HMNKVAQFYRELVSTLSERLRNGERDIDALVEQARVRISQSGELTQSEIENVIRAVRRDLEEFALSYEE | 0.0926 |
| HMNYTQAQIDRANAVSLEDFLRTQGETLIKSGREYRWKEHDSLTVRGNKWFRHSQSKGGYPIDFVMEFTA | 0.0368 |
| HMNILVAISDTGEIWINKRRVDARAVQANIERLHAENPQGTVVIQADKQATTETLIKVMDASRAAGVFDVS | -0.618 |
| HMTVAQEIEARRATIRSSDPAEMARFIRWLIMEGHTEPAADELKKYAENFPEASATTKQLQALLAAR | -0.177 |
| HMATLAVPNLMRLSQGEAMALIRLSGLSIGNVSIDSSMGSPRVIRQEPQASGGMLVLTQGDQVHLWLEGP | -3.2 |

| Sequence | soluble fraction (log2) |
| --- | --- |
| HMKLIPLTDMRGQLRSGAPLPWGVRDAQGNLLLGKGHVIASDDMLEALLARGMFVDAEEAKAARG | 0.00271 |
| HMGIVVDGTMTLEGVAERYGMSVGELARVIGVPPEYSNERLGRLRKSYEFEMDDIRIYIIQKQ | -1.31 |
| HMAGTAMRATTAVNVRSGAGTNYSRIGLLQAGEQIQALSSKNGWTQVSYKGRTGYVASAYLASL | -0.309 |
| HMQSSDQTDNIYENAVSIVLETGKASASHLQRVLGIDYNLAAHLIDKMEDGGLLSPPNYLGHRDVYGYT | 0.0916 |
| HMPEEGPSEDGNSFTAKFKLGSDVQGAMEQADAAAKAGLQDAGKGTGQITSRAQVGGYIYSTATA | 0.0661 |
| HMKKVRIPDDPEEAYRKALKTAMNIVGYKDNTEFTLREKLSERGYSGETVDAVAEFMKSKGYV | 0.245 |
| HMEAPNELLVPEGARPARADRVLAAAFPEHSRTALQRAFDAGLVRRANLVLSRDTAVAGGDRIAFSLPAV | -0.00557 |
| HMPKAPHETLSRREMEVLLLLSEGVTLTRIGDTIHVSVKTVSTYRARILQKLDLQSNAELTRYVLQHKL | -3.38 |
| HMGQELTMPDLKSMSRSNAEEKLKKMGLKLGAVFEENAKEPAGTVINQDPRSGSKITKGQTVDITVSLGEK | 0.131 |
| HMSRFLEGILQRRAGGKNYFVPDDGSNPIFIADRNSAGAANGDRVRIAQFARRPRSGPEGEVVEILKRAK | -0.00665 |
| HMEQPAPSTTVDILGGGRAALVTANRELGLALADDEIDYLTDSFTQLGRNPVDVELMMFAQA | 0.00743 |
| HMINDKLQHLFSLFPAMDKELKRKGITRQILWVEYKKQYPLGFGRSQFNSYFAAWKAQVSPS | -1.52 |
| HMKTKTIMSTGAREDLVKMINEYYYSKNYIITEDNRIYNTKTEKFMDDLSVKFYRGRWKVIRN | -0.813 |
| HMRILDFPALKTEFDQLTKDLMAKYPEDGADRVRAIIETVLGPGKKVGALQPHQAELLAEVNTSLKANL | 0.153 |
| HMRKATEVPFTAFKDSIENSHGKLSKAGLARHLADEYGMSQRNMERRINNLIDNKTIKYGNEGGLVWIG | -0.0291 |
| HMAKVDIPHEMVDQRIDEIVEEIKMNLESQNMSLDDYLKRMNQTEAQLRANYEATAAEQVRQGLV | 0.314 |
| HMYSKQRELIMEAVFKNRVHPTAEYVYKLLKKDHPELSLGTVYRNLNYWAENNMLKKINVPGGSDRFDGT | -0.00987 |
| HMTTIKLTQEDVEKIKSLPKRTFLIGNLQQTGLYDEKTRRFYYLDANGEWNGRLAIINTPPPPPPPP | 0.199 |
| HMFTKYSPDFKLSVILDMRKNNLGYGEVVRKYWNLDSYKESDRHRSQVRLWERIFLEEGVEGFM | -4.64 |
| HMGPEAFPVPYVVDIELDRAIYVIEQSGFIVGQKLEANDNNVPRGFVISQNPPAGTKLGPESIVDLVVSS | -0.519 |
| HMNLVELKHAEEFNTLIIQDIGGRMKPAHTLASELVRKVFHNDDFNGIDPRKVFLSIIENSKVWFNVPFI | 0.119 |
| HMSAAELFEERQRQYLRGRKSTKNIADNHGTIILRAGETITDQAIDKAKVAGKLVELVMNNE | 0.142 |
| HMEADERRNEILDAAETLITEKGYSKTTIIDILNQVGIAKGTFYYYFKSKEEVMDAIIERFI | -2.25 |
